Reference: article PMC12170907 (2025)

Target: Superfolder-GFP-tagged M-HBsAg (serotype ayw, genotype D3) (Hepatitis B virus (serotype ayw, …))
Assay: ELISA

B1: 3× HA-tagged FabHBC (Fab, V domains shown)
VH: ELQLVESGGGWVQPGGSQRLSCAASGRIFRSFYMSWVRQAPGKGLEWVATINQDGSEKLYVDSVKGRFTISRDNAKNSLFLQMNNLRVEDTAVYYCAAWSGNSGGMDVWGQGTTVSVSS
VL: SYELTQPPSVSVSPGQTVSIPCSGDKLGNKNVCWFQHKPGQSPVLVIYEVKYRPSGIPERFSGSNSGNTATLTISGTQAMDEAAYFCQTWDSTTVVFGGGTRLTVL
**Q.** How did the Kd turn out when B1 was run?
**A.** 103 pM
